# Measured values reported in patent publication US20150010586A1.
# Assays:
# Conditions in all cases: remark: other sources report otherwise
# [1] = molecular target: HLA-A*0101 (human); test: cellular competition assay vs FL-labelled reference peptide on B cells; affinity category (high/good IC50<5 uM, intermediate 5-15 uM, low >15-50 uM)
# [2] = molecular target: HLA-A*0301 (human); test: as above
# [3] = molecular target: HLA-A*0201 (human); test: HLA-A*0201 peptide stabilization assay; unstable if >50% of complexes lost within 2 h
# [4] = molecular target: HLA-A*1101 (human); test: cellular competition assay vs FL-labelled reference peptide on B cells; affinity category (high/good IC50<5 uM, intermediate 5-15 uM, low >15-50 uM)
IC50 [2],Binder,also measured
–,RVEGNLRVEY [p53 196-205 …],IC50 [1]: 5 to 15 µM
5 to 15 µM,KGQSTSRHK [p53 373-381 …],–
–,FLHSGTAKSV [p53 113-122 …],Stability [3]: 6 h
5 to 15 µM,VTCTYSPALNK [p53 122-132 …],–
–,RTEEENLRK [p53 283-291 …],IC50 [4]: 5 to 15 µM
–,RAHSSHLK [p53 363-370 RAHSSHLK],IC50 [4]: 5 to 15 µM
5 to 15 µM,GFLHSGTAK [p53 112-120 …],IC50 [4]: 5 to 15 µM
5 to 15 µM,VVRRCPHHER [p53 172-181 …],–
5 to 15 µM,GTRVRAMAIY [p53 154-163 …],–
5 to 15 µM,RAHSSHLKSK [p53 363-372 …],–
5 to 15 µM,FLHSGTAK [p53 113-120 FLHSGTAK],–
–,GLAPPQHLIRV [p53 187-197 …],Stability [3]: 6 h
–,RMPEAAPPV [p53 65-73 …],Stability [3]: 6 h
